Source: patent US20220241369A1, “COMPOSITIONS AND METHODS OF MODULATING INFLAMMATION” (La Jolla Institute for Allergy and Immunology, priority 2018, published 2022)

Columns and labels:
[1] = tested on: CMT-93 murine intestinal epithelial cells; assay: HRF secretion into culture supernatant, western blot, CMT-93; format: cell-based, mouse; conditions: stimulated overnight, 20 or 100 ng/ml
Experimental: (§1) FIGS. 4A-4C show HRF is secreted by various cells. CMT-93 murine intestinal epithelial cells (FIG. 4A) and NIH/3T3 murine fibroblasts (FIG. 4B) and Raw264.7 murine macrophages (FIG. 4C) were stimulated overnight with low (20 ng/ml) and high (100 ng/mL) concentrations of various cytokines. HRF secreted into culture supernatants was detected by western blotting. Med and US denote medium only and supernatant from unstimulated cells, respectively. −DTT and +DTT indicate SDS gels were run under non-reducing and reducing conditions, respectively. Gel portions of containing the 23 kDa HRF monomer are shown except that a larger portion of the non-reducing gel is shown in panel C. Arrow indicates the position of HRF dimer, which disappeared under reducing conditions.
(§2) The following cell lines were cultured in DMEM plus 10% FCS except for U-937 cells which were cultured in RPMI1640 plus 10% FCS: CMT-93 mouse and Caco-2 (with 20% FCS) human intestinal epithelial cell lines; NIH/3T3 mouse fibroblast line; Raw 264.7 mouse and U-937 human macrophage lines; BEAS-2B human bronchial epithelial cell line; 293T human embryonic kidney cell line (obtained from ATCC, Manassas, Va., except for NIH/3T3, which was provided by S. A. Aaronson, NIH). Fibroblast-like stromal cells were cultured from small intestines of BALB/c mice in DMEM/10% FBS. CD4^+ T and B cells were purified from mouse spleens using BD IMag™ Mouse CD4 and B cells enrichment set-DM. Low-density bone-marrow cells were cultured in the presence of 100 ng/ml of stem cell factor (PeproTech) and 100 ng/ml of FLT-3 ligand (R&D Systems) for 4 days, and with 10 ng/mL of IL-5 (R&D Systems) thereafter for 10 days to obtain bone marrow-derived eosinophils (44). Bone marrow cells were cultured in the presence of 20 ng/ml of GM-CSF for 6 days and adherent cells were collected as bone marrow-derived macrophages. Non-adherent cells were further cultured with 5 ng/ml GM-CSF and the non-adherent cells were collected as bone marrow-derived dendritic cells. […]

[2] = tested on: NIH/3T3 murine fibroblasts and primary intestinal fibroblasts; assay: HRF secretion into culture supernatant, western blot, fibroblasts; format: cell-based, mouse; conditions: stimulated overnight, 20 or 100 ng/ml
Experimental: as §1
The following cell lines were cultured in DMEM plus 10% FCS except for U-937 cells which were cultured in RPMI1640 plus 10% FCS: CMT-93 mouse and Caco-2 (with 20% FCS) human intestinal epithelial cell lines; NIH/3T3 mouse fibroblast line; Raw 264.7 mouse and U-937 human macrophage lines; BEAS-2B human bronchial epithelial cell line; 293T human embryonic kidney cell line (obtained from ATCC, Manassas, Va., except for NIH/3T3, which was provided by S. A. Aaronson, NIH). Fibroblast-like stromal cells were cultured from small intestines of BALB/c mice in DMEM/10% FBS. […]

[3] = tested on: Raw264.7 murine macrophages; assay: HRF secretion into culture supernatant, western blot, macrophages; format: cell-based, mouse; conditions: stimulated overnight, 20 or 100 ng/ml
Experimental: as §1, §2

[4] = tested on: BEAS-2B human bronchial epithelial cells; assay: HRF secretion, western blot, BEAS-2B; format: cell-based; conditions: combination of HDM and cytokine, 24 h
Text: As lung epithelial cells are exposed to the environment, HRF secretion was studied using BEAS-2B human bronchial epithelial cells. A small amount of HRF was secreted constitutively, but house dust mite allergens induced the secretion of high-molecular-weight HRF species (HMW-HRFs). Various cytokines including epithelial derived cytokines as well as Th2 cytokines and proinflammatory cytokines further enhanced HDM-induced secretion of HMW-HRFs.
Cultured cells were scraped and treated with adenosine and ATP, which should be abundantly present in inflammatory or injured tissues. These conditions induced secretion of HRF monomer, dimer and HMW-HRFs like stimulation with HDM plus cytokines.
Culture supernatants were analyzed by SDS-PAGE under nonreducing (−DTT) and reducing (+DTT) conditions, followed by western blotting for HRF probing. HDM-induced HRF secretion was enhanced not only by Th2 cytokines (IL-4, IL-5, and IL-13), but also by epithelial derived cytokines (IL-25, IL-33, and TSLP) and proinflammatory cytokines (IL-1beta, IL-6 and TNF). med, medium alone; US, unstimulated; HDM, house dust mite; CR, cockroach; RW, ragweed; Af, Aspergillus fumigatus. Arrowhead, HRF monomer.

[5] = tested on: c-Kit+ mucosal mast cells of the small intestine; assay: Ex vivo mast cell activation test (MCAT); format: cell-based, mouse; conditions: 15 min at 37° C.
Experimental: FIGS. 2A-2C show mucosal mast cells can be activated ex vivo by antigen. Cells were released with EDTA from small intestines of non-sensitized/OVA challenged (Cont) or OVA-sensitized/OVA-challenged (OVA) mice, and mononuclear cells were selected. The cells were incubated for 15 min at 37° C. with OVA or anti-IgE antibody, and activation of Kit^+ mast cells was measured by flow cytometry (FIG. 2A, FIG. 2B). **, ***: p<0.01, p<0.001 by Student's t-test. (n=2; a representative of 2 independent experiments) (FIG. 2C) Mucosal cells derived from OVA-sensitized/OVA-challenged mice were stimulated with PBS (n=4), OVA (10 ng/ml, n=4) or HRF dimer (100 μg/ml, n=2) in the presence or absence of HRF-2CA (300 μg/ml).
FIGS. 11A-11C show HRF dimer, but not monomer can activate mast cells. (FIG. 11A) Purified dimeric and monomeric HRF expressed in E. coli. Recombinant HRF-[…] was purified first by Histrap HP and then Sephacryl S-200 HR16/60. Two peaks were observed by Sephacryl size fractionation. The first (Fr1) and second (Fr3) peaks contained dimer and monomer, respectively, as shown by SDS-PAGE. Fr1 and Fr3 were used for mast cell stimulation. (FIG. 11B) Cells were released with 10 mM EDTA from small intestines of OVA-sensitized/OVA-challenged mice, and mononuclear cells were selected. The cells were incubated for 15 min at 37° C. with mHRF monomer or dimer (100 μg/ml), or PBS, and Kit^+ mast cell activation (LAMP-1^+) was measured by flow cytometry (n=3). (FIG. 11C) Control experiments indicate an excellent specificity of the assay for HRF multimers. HRF-2CA (2CA) was used as a monomer control (n=2 for each concentration). Note that total concentrations of the 1:9 mixture of dimer:monomer gave almost the same luminescence values as did ten-fold less concentrations of dimer.
Twenty-four hours after the last OVA challenge, mice were sacrificed and small intestines (0.5-15 cm from stomach) were collected. The intestinal tissues were opened longitudinally and washed with PBS. Then, the tissues were incubated with 10 mM EDTA-PBS for 30 min at 37° C. After incubation, the tissues were transferred to 30 ml PBS in 50 ml tubes and vigorously shaken. After washed, the cells were resuspended in 40% Percoll solution and slowly loaded on the top of 75% Percoll solution. The cells were then centrifuged (2000 rpm, 20 min) and lymphocytes were collected. The cells were once centrifuged and resuspended in Tyrode's buffer. Abs (Biotin-anti-CD4 mAb (clone RM4-5), Biotin-anti-CD8 mAb (clone 53-6.7), Biotin-anti-B220 mAb (clone RA3-6B2), Biotin-anti-CD326 mAb (clone G8.8), PE-anti-CD117 (clone 2B8), AlexaFluor647-anti-LAMP-1 mAb (clone 1D4B)) (Biolegend) were added and cells were then stimulated with OVA, anti-IgE (clone RME-1, BioLegend) and recombinant dimeric murine HRF for 15 min at 37° C. After activation, cells were washed and incubated with FITC-streptavidin (Catalog #405202, Biolegend) for 30 min at 4° C. LAMP-1 expression was detected using FACS Calibur. Data were analyzed using FlowJo software.

[6] = tested on: OVA-induced allergic diarrhea; assay: Classical tolerance model, oral OVA before sensitization; format: in vivo, mouse
Experimental: (§3) In a classical tolerance model, five daily oral administrations of 1 mg OVA from day −11 to day −7 were performed before i.p. OVA/alum-sensitization on days 0 and 7 and followed by ig. OVA (30 mg) gavages on days 14, 21, 28 and 35. In another OIT model, mice were i.d. sensitized with OVA (750 μg) on days 0, 13 and 27 and followed by 9 oral OVA (60 mg) challenges from day 44 to day 60 to induce diarrhea in all mice. Then mice were i.g. treated with hourly increasing amounts of OVA on day 100 (0.1, 0.2, 0.5 mg), on day 101 (1, 2, 5 mg) and on day 102 (10, 20, 60 mg).
Applicant then tested the possibility provoked by the above human data that the level of HRF-reactive IgE is kept low in a desensitized state, using two murine models. In a classic tolerance model (30), five daily oral administrations of 1 mg OVA from day −11 to day −7 (OIT) prevented the OVA-induced development of allergic diarrhea in OVA-sensitized mice (FIG. 7B). By contrast, without oral pretreatment, all OVA-sensitized mice developed allergic diarrhea.

[7] = tested on: OVA-induced allergic diarrhea; assay: OIT desensitization model, hourly increasing amounts of OVA for 3 days; format: in vivo, mouse
Experimental: as §3
Finally, HRF-reactive IgE and HRF-reactive IgG were monitored in another desensitization model, which mimicked the human OIT more faithfully. OVA-sensitized mice were first rendered allergic by OVA challenges and then received hourly increasing amounts of OVA for 3 consecutive days (OIT) after a resting period (FIG. 7D). […] Levels of HRF-reactive IgG and OVA-specific IgG were not changed by OIT (FIG. 7E). In non-sensitized mice, HRF-reactive IgE and HRF-reactive IgG levels were not changed by OIT and OVA-specific IgE and IgG levels were extremely low irrespective of OIT treatment (data not shown).

[8] = tested on: mouse bone marrow-derived mast cells (BMMCs); assay: IL-13 production of IgE-sensitized BMMCs stimulated with TNP3-BSA and mHRF dimer; format: cell-based; conditions: IL-13 ELISA
Experimental: (§4) FIGS. 33A-33B show HRF dimers enhance IgE/antigen-induced activation of mast cells and basophils. […] IL-13 in culture supernatants was quantified by ELISA. […] Then, HDM allergen (Dermatophagoides farinae at 10 ng/ml) was added to the cells together with FITC-anti-CD63 and APC-anti-CCR3 for 15 min. Expression of CD63 (activation marker) and CCR3 (basophil marker) was analyzed by flow cytometry.

[9] = tested on: basophils; assay: Basophil activation (CD63) in blood of an HDM-sensitized asthmatic; format: cell-based, human; conditions: 10 μg/ml, 30 min, then HDM allergen 10 ng/ml for 15 min
Experimental: as §4

[10] = cells from allergic (OVA-sensitized/OVA-challenged) mice

IL-1β was tested. Which HRF secretion [1] did it give?
Its HRF secretion is “strongly induced”.

And the HRF secretion [2]?
The HRF secretion was “enhanced”.

What about the “secretion of HRF monomer” value [3] of the same molecule?
The value was “increased”.

What about the “HDM-induced HRF secretion” value [4] of the same molecule?
The value was “enhanced”.

B1: OVA: food allergen of the murine model, also given orally as OIT (protein, UniProt P01012 2-386, looked up)
Ovalbumin: GSIGAASMEFCFDVFKELKVHHANENIFYCPIAIMSALAMVYLGAKDSTRTQINKVVRFDKLPGFGDSIEAQCGTSVNVHSSLRDILNQITKPNDVYSFSLASRLYAEERYPILPEYLQCVKELYRGGLEPINFQTAADQARELINSWVESQTNGIIRNVLQPSSVDSQTAMVLVNAIVFKGLWEKAFKDEDTQAMPFRVTEQESKPVQMMYQIGLFRVASMASEKMKILELPFASGTMSMLVLLPDEVSGLEQLESIINFEKLTEWTSSNVMEERKIKVYLPRMKMEEKYNLTSVLMAMGITDVFSSSANLSGISSAESLKISQAVHAAHAEINEAGREVVGSAEAGVDAASVSEEFRADHPFLFCIKHIATNAVLFFGRCVSP
For B1, which “activation (LAMP-1+) of mucosal mast cells by the substance” value (shortened to “activation (LAMP-1+)”) [5, 10] is on record?
Its value is “further activated”.

And the “activation (LAMP-1+)” value ([5]; cells from non-sensitized mice)?
Its value is “few mast cells were activated”.

And the “OVA-induced development of allergic diarrhea” value ([6]; five daily oral administrations of 1 mg from day -11 to day -7)?
Its value is “prevented”.

What about the “HRF-reactive IgE levels” value ([6]; tolerance-induced vs non-tolerant and non-sensitized mice) of the same molecule?
Its value is “significantly reduced”.

What about the “levels of HRF-reactive IgE” value ([7]; before vs after OIT) of the same molecule?
The value was “lowered”.

What about the “levels of HRF-reactive IgG and OVA-specific IgG” value ([7]; before vs after OIT) of the same molecule?
The value was “not changed”.

What about the “levels of OVA-specific IgE” value ([7]; before vs after OIT) of the same molecule?
The value was “did not change”.

And the “OVA-sensitized/OVA-challenged mice desensitized to the final gavage dose of 60 mg” value ([7]; hourly increasing amounts for 3 consecutive days)?
Its value is 80%.

B2: HRF dimer: recombinant disulfide-linked dimer of mouse histamine releasing factor (protein, UniProt P63028 1-172, looked up)
Translationally-controlled …: MIIYRDLISHDELFSDIYKIREIADGLCLEVEGKMVSRTEGAIDDSLIGGNASAEGPEGEGTESTVVTGVDIVMNHHLQETSFTKEAYKKYIKDYMKSLKGKLEEQKPERVKPFMTGAAEQIKHILANFNNYQFFIGENMNPDGMVALLDYREDGVTPFMIFFKDGLEMEKC
modifications: disulfide-linked dimer
notes: recombinant disulfide-linked dimer of mouse histamine releasing factor
With B2 as the molecule, how does the “activation (LAMP-1+)” value [5, 10] read?
The value was “can activate”.

And the “activation (LAMP-1+)” value ([5]; cells from allergic (OVA-sensitized/OVA-challenged) mice, listed as dimeric HRF)?
Its value is “activated”.

And the “IgE/antigen-induced activation of mast cells” value [8]?
The value was “enhance”.

B3: hHRF dimer: human HRF dimer (protein)
chain: MIIYRDLISHDEMFSDIYKIREIADGLCLEVEGKMVSRTEGNIDDSLIGGNASAEGPEGEGTESTVITGVDIVMNHHLQETSFTKEAYKKYIKDYMKSIKGKLEEQRPERVKPFMTGAAEQIKHILANFKNYQFFIGENMNPDGMVALLDYREDGVTPYMIFFKDGLEMEKC
For B3, which “IgE/antigen-induced activation of basophils (CD63)” value [9] is on record?
The value was “enhance”.
